Data taken from patent publication US20240043504A1.

Columns and labels:
[1] = molecular target: T1, SARS-CoV-2 Spike Protein (RBD)(R319-F541).mmH (SARS-CoV-2); test: Luminex bead binding, supernatant; details: remark: other sources report otherwise
[2] = molecular target: T1, SARS-CoV-2 Spike Protein …; test: Luminex bead binding, supernatant; details: remark: other sources report otherwise; remark: listed apart in the source

Binder | Binding signal (MFI) [1] [MFI] | Binding signal (MFI) [2] [MFI]
mAb10998 (antibody, V domains shown) VH: EVQLVESGGGLVHPGGSLRLSCAASGLTVSSNYMSWVRQAPGKGLEWVSVIYSGGSTYYADSVKGRFTISRHNSKNTLFLQMNSLRAEDTAVYYCARDRPITGTTLDVWGQGTTVTVSS VL: DIQMTQSPSSLFASVGDRVTITCRASQSISSYLNWYQQKPGKAPKLLIYAASSLQSGVPSRFSGSGSGTDFTLTISSLQPEDFAFYYCQQTYSTPPITFGQGTRLEIK | 3840 | 1850
mAb11006 (antibody, V domains shown) VH: EVQLVESGGGLVQPGGSLRLSCAASGFIVSRNYMSWVRQAPGKGLEWVSVIYSGGSTFYADSVKGRFTISRHNSKNTLYLQMNSLKAEDTAVYYCARELRGYFDYWGQGTLVTVSS VL: DIQLTQSPSFLSASVGDRVTITCWASQGISSYLAWYQQKPGKAPKLLIYAASTLQSGVPSRFSGSGSGTEFTLTISSLQPEDFATYYCQLLNSYPYTFGQGTKLEIK | 4740 | 5130
mAb11008 (antibody, V domains shown) VH: EVQLVESGGGLVQPGGSLRLSCAASGFTVSSNYMTWVRQAPGKGLEWVSVIYSGGSTFYADSVKGRFTISRHNSENTLYLQMNSLRAEDTAVYYCARDLAAAGTDYWGQGALVTVSS VL: DIQLTQSPSFLSASVGDRVTITCWASQGISSYLAWYQQKPGKAPKLLIYAASTLQSGVPSRFSGSGSGTEFTLTISSLQPDDFATYYCQHLNSYLYTFGQGTKLEIK | 3180 | 4050
mAb11004 (antibody, V domains shown) VH: QVQLVESGGGVVQPGRSLRLSCVASGFTFSIYGMDWVRQAPGKGLEWVAVISYDGSNKYYADSVKGRFTISRDNSKNTLYLQMNSLRPEDTAVYYCAKDREAAADAFDIWGQGTMVTVSS VL: DIQMTQSPSSVSASVGDRVTITCRASQGISSWLAWYQQKPGKAPKLLIYAASSLHSGVPSRFSGSGSGTDFTLTISSLQPEDFATYYCQQANSFRLTFGGGTKVEIK | 11300 | 3350
